In patent publication US20240076343A1 (CEPHALON, published 2024):
Residue numbers refer to the chain shown, from its start.

Legend:
[1] = biological target: T1, human PD-1 (amino acids 1-185) on transfected Jurkat cells (human, UniProt Q15116 21-185); test: flow cytometry on Jurkat cells expressing hPD-1; no competitor
T1 construct: also called hPD-1; Jurkat+hPD-1 cell line
Description: (§1) Briefly, Jurkat cells stably expressing hPD-1 (as described in Protocol A above) were washed and re-suspended in FACS buffer containing 1:50 dilution of human FcR Blocking reagent. Cells were incubated at 4° C. for 10 minutes and washed. […] Cells were washed and incubated with test antibodies or antibody-attenuated hIL-2 fusion proteins serially diluted six-fold for an 8-point curve in 100 μL volume for one hour at 4° C. To detect bound test anti-hPD-1 antibodies or anti-hPD-1-attenuated hIL-2 fusion proteins, cells were washed again and incubated with 1:40 dilution of Allophycocyanin-conjugated anti-human IgG Fc monoclonal antibody for 45 minutes on ice. Cells were washed and re-suspended in FACS buffer containing 1:1000 dilution of Sytox Green (Thermo Fisher). […] Flow cytometry was carried out on the BD Canto II, BD Celesta, or BD Fortessa (BD Biosciences) flow cytometers and gMFI was calculated using FlowJo software version 10. EC₅₀ values were calculated from the gMFI of the Allophycocyanin signal across the titrated concentrations using GraphPad Prism 7 software.

[2] = biological target: T1, human PD-1 (amino acids 1-185) on …; test: flow cytometry on Jurkat cells expressing hPD-1; cells pre-incubated with 10 µM anti-hPD-1 #1-mIgG2b-N297A
Description: as §1

[3] = biological target: T2, native human PD-1 on PMA/ionomycin-activated primary human T cells (human, UniProt Q15116 25-288); test: flow cytometry, activated human CD3+CD8+ T cells
T2 construct: whole, on cells; also called native hPD-1
Description: (§2) The binding of anti-hPD-1 antibodies and anti-hPD-1-attenuated hIL-2 fusion proteins on activated primary T cells expressing hPD-1 was examined by flow cytometry. […] Cells were then stained with 1:20 dilution of Allophycocyanin-conjugated anti-human IgG Fc to detect bound antibody. To delineate immune subsets, a cocktail of surface markers included anti-human CD3, anti-CD4, and anti-CD8 antibodies was used. […] Cells were analyzed on the BD Fortessa (BD Biosciences), FlowJo software version 10 was used to gate on T cell subsets then calculate gMFI of the allophycocyanin signal. EC₅₀ values were calculated from the gMFI across the titrated concentrations using GraphPad Prism 7 software. To test the binding of anti-hPD-1-hIL-2 fusion proteins, cryopreserved CD3+ T cells were activated with PMA/ionomycin and flow cytometry binding was performed identically as described above.

[4] = biological target: T2, native human PD-1 on …; test: flow cytometry, activated human CD3+CD4+ T cells
Description: as §2

[5] = biological target: human PD-1 on Jurkat Effector cells of the PD-1/PD-L1 blockade bioassay (Promega, Cat #J1255) (human, UniProt Q15116 25-288); test: cell-based or functional assay
[6] = biological target: T1, human PD-1 (amino acids 1-185) on …; test: flow cytometry on Jurkat cells expressing hPD-1; cells pre-incubated with 10 µM anti-hPD-1 #2-mIgG2b-N297A
Description: as §1

[7] = biological target: T1, human PD-1 (amino acids 1-185) on …; test: flow cytometry, Jurkat+hPD-1 cells; competitor 10 µM anti-hPD-1 #1-mIgG2b-N297A
Description: as §1

[8] = biological target: T3, human PD-1 on Jurkat cells (Jurkat+hPD-1) (human, UniProt Q15116 21-185); test: flow cytometry on Jurkat cells expressing hPD-1
T3 construct: extracellular domain and a portion of the transmembrane domain, stably expressed on Jurkat cells
Description: EC₅₀ values were calculated from the geometric mean fluorescent intensity (gMFI) across the titrated concentrations using GraphPad Prism 7 software.

[9] = biological target: T4, recombinant His-tagged human PD-1 (Acro Biosystems) (human, UniProt Q15116 25-167); test: SPR, steady state, separate experiment; separate experiment; steady state KD
T4 construct: also called recombinant human PD-1; human PD-1 (Acro Biosystems, Cat #PD-1-H5221-100 ug)

[10] = biological target: T5, native cynomolgus PD-1 on PMA/ionomycin-activated cynomolgus T cells (cynomolgus, UniProt B0LAJ3 25-288); test: flow cytometry, activated cynomolgus CD3+CD4+ T cells
Description: (§3) Human PD-1 antibody-attenuated hIL-2 fusion proteins were also tested for binding to activated cynomolgus T cells using flow cytometry. […] 24 hours later, cells were stained using the same procedure as binding to human PD-1 primary cells described above except cynomolgus cross-reactive markers were used. FlowJo software version 10 was used to gate on live, CD3⁺CD4⁺ or CD3⁺CD8⁺ T cells and then to calculate gMFI of the Allophycocyanin signal. EC₅₀ values were calculated from the gMFI across the titrated concentrations of anti-hPD-1 antibodies or hPD-1 antibody-attenuated hIL-2 fusion proteins using GraphPad Prism 7 software.

[11] = biological target: T5, native cynomolgus PD-1 on …; test: flow cytometry, activated cynomolgus CD3+CD8+ T cells
Description: as §3

[12] = biological target: T1, human PD-1 (amino acids 1-185) on …; test: flow cytometry on Jurkat cells expressing hPD-1; cells pre-incubated with 10 µM anti-hPD-1 #1-mIgG2b-N297A; remark: listed apart in the source
Description: as §1

[13] = biological target: T1, human PD-1 (amino acids 1-185) on …; test: flow cytometry on Jurkat cells expressing hPD-1; no competitor; remark: listed apart in the source
Description: as §1

[14] = biological target: T1, human PD-1 (amino acids 1-185) on …; test: flow cytometry on Jurkat cells expressing hPD-1; cells pre-incubated with 10 µM anti-hPD-1 #2-mIgG2b-N297A; remark: listed apart in the source
[15] = biological target: T1, human PD-1 (amino acids 1-185) on …; test: flow cytometry, Jurkat+hPD-1 cells
[16] = biological target: T1, human PD-1 (amino acids 1-185) on …; test: flow cytometry on Jurkat cells expressing hPD-1; no competitor; remark: listed apart in the source
Description: as §1

[17] = biological target: T1, human PD-1 (amino acids 1-185) on …; test: flow cytometry on Jurkat cells expressing hPD-1; cells pre-incubated with 10 µM anti-hPD-1 #1-mIgG2b-N297A; remark: listed apart in the source
Description: as §1

[18] = biological target: T1, human PD-1 (amino acids 1-185) on …; test: flow cytometry on Jurkat cells expressing hPD-1; cells pre-incubated with 10 µM anti-hPD-1 #2-mIgG2b-N297A; remark: listed apart in the source
Description: as §1

T3 sequence (Q15116 21-185 limits assumed): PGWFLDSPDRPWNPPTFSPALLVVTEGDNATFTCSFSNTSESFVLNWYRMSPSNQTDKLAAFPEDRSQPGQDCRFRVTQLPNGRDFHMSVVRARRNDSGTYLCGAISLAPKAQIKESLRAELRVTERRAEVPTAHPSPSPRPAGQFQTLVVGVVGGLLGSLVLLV
T1 sequence (Q15116 21-185 limits assumed): as above
T2 sequence (Q15116 25-288): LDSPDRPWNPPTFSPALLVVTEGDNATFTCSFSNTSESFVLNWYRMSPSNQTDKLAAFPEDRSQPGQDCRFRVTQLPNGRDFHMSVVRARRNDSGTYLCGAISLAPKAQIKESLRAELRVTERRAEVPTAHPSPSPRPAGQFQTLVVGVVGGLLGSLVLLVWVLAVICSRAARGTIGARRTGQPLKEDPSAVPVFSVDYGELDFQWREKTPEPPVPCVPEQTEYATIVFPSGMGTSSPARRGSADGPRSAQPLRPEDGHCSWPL
Chain of human PD-1 on Jurkat Effector cells of the PD-1/PD-L1 blockade bioassay (Promega, Cat #J1255) (Q15116 25-288): as above
T5 sequence (B0LAJ3 entry or part of it limits assumed): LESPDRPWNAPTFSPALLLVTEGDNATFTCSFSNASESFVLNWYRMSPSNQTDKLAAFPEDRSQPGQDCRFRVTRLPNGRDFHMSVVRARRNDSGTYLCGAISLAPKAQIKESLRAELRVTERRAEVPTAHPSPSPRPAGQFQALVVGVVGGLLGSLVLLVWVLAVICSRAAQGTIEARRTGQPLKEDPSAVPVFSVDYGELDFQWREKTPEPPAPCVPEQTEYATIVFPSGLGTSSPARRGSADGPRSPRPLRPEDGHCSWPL
T4 sequence (Q15116 25-167 limits assumed): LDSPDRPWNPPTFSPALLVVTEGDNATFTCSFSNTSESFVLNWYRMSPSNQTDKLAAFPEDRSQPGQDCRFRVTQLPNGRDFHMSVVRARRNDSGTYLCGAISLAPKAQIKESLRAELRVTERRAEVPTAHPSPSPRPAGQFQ

B1: A2-hIgG4 (antibody, V domains shown)
VH: DVQLVESGGGLVQPGGSLRLSCAASGFTFDISAMSWVRQAPGKGLEWVSTISGSAYSTYYADSVKGRFTISRDNSKSTLYLQMNSLRAEDTAVYYCAREIFSDYWGLGTLVTVSS
VL: QSVLTQPPSASGTPGQRVTISCSGSTSNIGRESVYWYQQLPGTAPKLLIYSNVQRPSGAPNRFSGSKSGTSASLAISGLQSEDEADYYCGTWDDSLNGWVFGGGTKLTVLG
[1]
  EC50 (read off the curve): ~6 nM
[2]
  EC50 (read off the curve): ~10 nM
[3]
  EC50: 22 nM
[4]
  EC50: 30 nM
[5]
  luminescence (RLU), PD-1/PD-L1 blockade bioassay: ~3000 RLU
[6]
  EC50 (read off the curve): ~20 nM
[7]
  fold shift of the dose-titration curve: < 10 fold

B2: A2-hIgG4 (antibody, V domains shown)
VH: B1 VH
VL: B1 VL
[8]
  EC50: 5.97 nM

B3: G12-hIgG4 (antibody, V domains shown)
VH: DSLVESGGGLVQPGGSLRLSCAASGFTFDISAMSWVRQAPGKGLEWVSTISGSAYSTYYADSVKGRFTISRDNSKSTLYLQMNSLRAEDTAVYYCAREIFSDYWGLGTLVTVSS
VL: B1 VL with S51L, V53S, A59V, N61D, E84V
[8]
  EC50: 5.36 nM

B4: D12-hIgG4 (antibody, V domains shown)
VH: B1 VH
VL: B1 VL with S25N, A59V, N61D
[8]
  EC50: 9.67 nM

B5: OMC.2.C6-hIgG4 (antibody, V domains shown)
VH: EVQLLESGGGLVQPGGSLRLSCTASGFTFSSYEMQWVRQAPGKGLEWVLGITSSSSHIFYADSVKGRFTVSRDNSKNTLYLQMNSLRAEDTAVYYCTKDLNSYYGLDVWGQGTTVTVSS
VL: QSVMTQPPSASGTPGQRVTISCSGSTSNLGNNYVSWYQHLPGTAPKLLIYGNDQRPSGVPDRFSGSKSGTSASLAISGLQSDDEADYYCSSWDASLNVWVFGGGTKLTVLG
[5]
  luminescence (RLU), PD-1/PD-L1 blockade bioassay: ~3000 RLU

B6: OMC.2.C6-hIgG4 (antibody, V domains shown)
VH: B5 VH
VL: B5 VL
[8]
  EC50: 11.5 nM

B7: OMC.1.B6-hIgG4 (antibody, V domains shown)
VH: EVQLLESGGGLVQPGGSLRLSCAASGFTFSSNYMSWVRQAPGKGLEWVSAISSSGGTIFYADSVKGRFTISRDNSKNTLYLQMNSLRAEDTAVYYCAKHKWNAVYYDGMDVWGQGTTVTVSS
VL: QSVLTQPPSASGTPGQRVTISCSGSNSNIGRNLVNWYQQLPGTAPKLLIYTIDQRPSGVPDRFSGSKSGTSASLVISGLQSEDEADYYCAAWDGSLNAWVFGGGTKLTVLG
[8]
  EC50: 7.42 nM

B8: OMC.1.D6-hIgG4 (antibody, V domains shown)
VH: B7 VH with S31D, N32Y, T69I, A103D, G108A
VL: B7 VL with I52V, V75A, Q80A, G94S, A98S
[8]
  EC50: 16 nM

B9: H7-632-hIgG1-LAGA (antibody, V domains shown)
VH: EVQLLESGGGLVQPGGSLRLSCAASGFTFKSYAMHWVRQAPGKGLEWVSAIVYSGGSTYYADSVKGRFTISRDNSKNTLYLQMNSLRAEDTAVYYCAKYDRASYFYDAMDVWGQGTTVTVSS
VL: EIVLTQSPGTLSLSPGERATLSCRASQSISSSFLAWYQQKPGQAPRLLIYDASDRATGIPDRFSGSGSGTDFTLTISRLEPEDFAVYYCQQYYDWPPLSFGGGTKVEIKR
[9]
  Kd: 1.23 nM

B10: H7-632-hIgG1-LAGA (antibody, V domains shown)
VH: B9 VH
VL: B9 VL
[8]
  EC50: 0.115 nM

B11: 2H7-hIgG4 (antibody)
heavy: not shown
light: EIVLTQSPGTLSLSPGERATLSCRASQSIGKSFLAWYQQKPGQAPRLLIYDASTRAADIPARFSGSGSGTDFTLTISSLEPEDFAVYYCQQYYDWPPLSFGGGTKVEIKRTVAAPSVFIFPPSDEQLKSGTASVVCLLNNFYPREAKVQWKVDNALQSGNSQESVTEQDSKDSTYSLSSTLTLSKADYEKHKVYACEVTHQGLSSPVTKSFNRGEC
[10]
  EC50: 0.09 nM
[11]
  EC50: 0.08 nM
[3]
  EC50: 0.1 to 0.8 nM
[12]
  EC50 (read off the curve): ~0.5 nM
[13]
  EC50 (read off the curve): ~0.3 nM
[4]
  EC50: 0.1 to 0.7 nM
[5]
  luminescence (RLU), PD-1/PD-L1 blockade bioassay: ~3000 RLU
[14]
  EC50 (read off the curve): ~2 nM
[7]
  fold shift of the dose-titration curve: < 10 fold

B12: 2H7-hIgG4 (antibody)
heavy: not shown
light: B11 light
[8]
  EC50: 0.277 nM

B13: C51E6-5-hIgG4 (antibody, V domains shown)
VH: QVQLVQSGSELKKPGASVKVSCKASGYSLYGTSMHWVRQAPGQGLEWMGYISPFTGRATYAQGFTGRFVFSLDTSVSTAYLQISSLKAEDTAVYYCARDYDYRYYYAMDYWGQGTTVTVSS
VL: EIVLTQSPDFQSVTPKEKVTITCTASESVPPQFLHWYQQKPDQSPKLLIYASRERASGVPSRFSGSGSGTDFTLTINSLEAEDAATYYCHQFHRSPLTFGGGTKLEIKR
[3]
  EC50: 16 nM
[15]
  EC50: 2 to 4 nM
[16]
  EC50 (read off the curve): ~2 nM
[17]
  EC50 (read off the curve): ~9 nM
[4]
  EC50: 12 nM
[5]
  luminescence (RLU), PD-1/PD-L1 blockade bioassay: ~3000 RLU
[18]
  EC50 (read off the curve): ~8 nM
[7]
  fold shift of the dose-titration curve: < 10 fold

B14: C51E6-5-hIgG4 (antibody, V domains shown)
VH: B13 VH
VL: B13 VL
[8]
  EC50: 2.05 nM
